Laboratory results published in US20210032351A1 (XDCEXPLORER SHANGHAI, published 2021).
Where a chain is given by its changes, count along the chain named. Values belong to the binder of their own block, whether it stands above or below them.

Assays:
[1] = molecular target: T1, human EGFR protein (wild-type), on cells (human, UniProt P00533 25-1210); test: FACS on U87MG and HEB cells
T1 construct: whole, on cells; transfected on CHO-K1 cells; endogenous on the human cell lines; the cell is named under assay; also called wild-type EGFR; hEGFR
Procedure: (§1) The collected cells are suspended to 2×10⁶ cells/mL with an FACS buffer (HBSS+1% BSA, with the percentage being the mass percentage), added to a 96-well FACS reaction plate at 100 μL/well, then added with 100 μL/well of the purified EGFRvIII antibody (samples to be tested) obtained in example 2, and incubated on ice for 2 hours. The plate is centrifugally washed twice with the FACS buffer, added with 100 μL/well of a fluorescence (Alexa 488) labeled secondary antibody (purchased from Invitrogen), and then incubated on ice for 1 hour. The plate is centrifugally washed 3 times with the FACS buffer, added with 100 μL/well of a fixing solution [4% (v/v) paraformaldehyde] for suspending the cells, and centrifugally washed twice with the FACS buffer after 10 minutes. The cells are suspended in 100 μL of the FACS buffer, and the results are detected and analyzed by FACS (FACS Calibur, purchased from BD). Data analysis is performed by using the software (CellQuest) to obtain the mean fluorescence intensity (MFI) of the cells. Data is further analyzed by using the software (GraphPad Prism5) to perform data fitting and calculate EC50. […] A431 cells (human epidermal cell cancer cell lines) have a large amount of wild-type EGFR protein expressed on the surface thereof. […] U87MG cells (human glioma cell lines) have a small amount of wild-type EGFR protein expressed on the surface thereof, while HEB cells (human glioma cell lines) have a high level of wild-type EGFR protein expression on the surface thereof.

[2] = molecular target: T2, human EGFRvIII-hFc protein (human, UniProt P00533 25-645); test: ELISA, coated EGFRvIII-hFc, antibody 1 nM
T2 construct: extracellular domain; made in HEK293 cells, purified on protein A; also called immunogen A; hFc-tagged EGFRvIII protein; not shown: human IgG Fc fragment (hFc) of the pCpC vector
Procedure: (§2) The purified immunogen A (EGFRvIII-hFc) obtained in example 1 (for the preparation method, see step (I) in example 1) is diluted with PBS to a final concentration of 1.0 μg/mL, and then added to a 96-well ELISA plate at 100 μl/well. The plate is sealed with a plastic film and incubated at 4° C. overnight. The next day, the plate is washed twice with a plate washing solution [PBS+0.01% (v/v) Tween20], and added with a blocking solution [PBS+0.01% (v/v) Tween20+1% (w/w) BSA] for blocking 2 hours at room temperature. The blocking solution is discarded, and the purified EGFRvIII antibody obtained in example 2 is added at 100 μl/well. The plate is incubated for 2 hours at 37° C., and then washed 3 times with the plate washing solution [PBS+0.01% (v/v) Tween20]. The plate is added with an HRP (horseradish peroxidase) labeled secondary antibody (purchased from Sigma), incubated at 37° C. for 2 hours, and then washed 3 times with the plate washing solution [PBS+0.01% (v/v) Tween20]. The plate is added with 100 μl of TMB substrate/well, incubated for 30 minutes at room temperature, and then added with 100 μl of stopping solution (1.0N HCl)/well. A450 nm value is read using an ELISA plate reader (SpectraMax 384plus, purchased from Molecular Device), and the results are shown in FIG. 6 and table 10.

[3] = molecular target: T2, human EGFRvIII-hFc protein; test: ELISA, coated EGFRvIII-hFc, antibody 10 nM
Procedure: as §2

[4] = molecular target: T2, human EGFRvIII-hFc protein; test: ELISA, coated EGFRvIII-hFc, antibody 0.1 nM
Procedure: as §2

[5] = molecular target: T2, human EGFRvIII-hFc protein; test: ELISA, coated EGFRvIII-hFc, antibody 100 nM
Procedure: as §2

[6] = molecular target: T2, human EGFRvIII-hFc protein; test: ELISA, coated EGFRvIII-hFc, antibody 0.01 nM
Procedure: as §2

[7] = molecular target: T2, human EGFRvIII-hFc protein; test: ELISA, coated EGFRvIII-hFc, antibody 0.001 nM
Procedure: as §2

[8] = molecular target: T2, human EGFRvIII-hFc protein; test: ELISA, coated EGFRvIII-hFc, antibody 0.0001 nM
Procedure: as §2

[9] = molecular target: T3, human wild-type EGFR protein on the cell surface (human, UniProt P00533 25-1210); test: FACS on CHOk1-EGFR cells
T3 construct: whole, on cells; Endogenous on A431, HEB, U87MG cells and normal human primary hepatocytes; transfected on CHOk1-EGFR cells; The cell is named under assay; also called A431; HEB
Procedure: as §1, with “The cells are washed twice with the HBSS buffer and are counted, and then the cells are diluted with the HBSS buffer to 2×10⁶ cells/ml, added with 1% goat serum blocking solution, with the percentage being the mass percentage, and incubated on ice for 30 minutes, and then centrifugally washed twice with the HBSS buffer. The collected” for “The collected”

[10] = molecular target: T4, human EGFRvIII-hFc protein (human, UniProt P00533 25-645); test: ELISA, EGFRvIII-hFc coated
T4 construct: extracellular domain; also called immunogen A; hFc-tagged EGFRvIII protein; not shown: human IgG Fc fragment (hFc) of the pCpC vector
Procedure: as §2, with “temperature. […]” for “temperature. The blocking solution is discarded, and the purified EGFRvIII antibody obtained in example 2 is added at 100 μl/well.”, “FIG. 11” for “FIG. 6”, “table 19.” for “table 10.”

[11] = molecular target: T5, human EGFRvIII protein on the cell surface (human, UniProt P00533 25-1210); test: FACS on CHOk1-EGFRvIII cells
T5 construct: whole, on cells; the cell line is named under assay; also called hEGFRvIII; U87MG-hEGFRvIII
Procedure: The desired cells are subjected to an expanded culture to 90% confluence in a T-75 cell culture flask; the medium is sucked out, and the cells are washed twice with a HBSS buffer (Hanks Balanced Salt Solution) (purchased from Invitrogen), and then treated with an enzyme-free cell dissociation solution (Versene solution: purchased from Life Technology) and collected. The cells are washed twice with the HBSS buffer and are counted, and then the cells are diluted with the HBSS buffer to 2×10⁶ cells/ml, added with 1% goat serum blocking solution, with the percentage being the mass percentage, and incubated on ice for 30 minutes, and then centrifugally washed twice with the HBSS buffer. The collected cells are suspended to 2×10⁶ cells/mL with an FACS buffer (HBSS+1% BSA, with the percentage being the mass percentage), added to a 96-well FACS reaction plate at 100 μL/well, then added with 100 μL/well of the purified EGFRvIII antibody (samples to be tested) obtained in example 2, and incubated on ice for 2 hours. The plate is centrifugally washed twice with the FACS buffer, added with 100 μL/well of a fluorescence (Alexa 488) labeled secondary antibody (purchased from Invitrogen), and then incubated on ice for 1 hour. The plate is centrifugally washed 3 times with the FACS buffer, added with 100 μL/well of a fixing solution [4% (v/v) paraformaldehyde] for suspending the cells, and centrifugally washed twice with the FACS buffer after 10 minutes. The cells are suspended in 100 μL of the FACS buffer, and the results are detected and analyzed by FACS (FACS Calibur, purchased from BD). Data analysis is performed by using the software (CellQuest) to obtain the mean fluorescence intensity (MFI) of the cells. Data is further analyzed by using the software (GraphPad Prism5) to perform data fitting and calculate EC50. […] A431 cells (human epidermal cell cancer cell lines) have a large amount of wild-type EGFR protein expressed on the surface thereof.

B3: c75G7C6-1 (antibody, human IgG1, V domains shown)
VH: EVQLQQSGPELVKPGASVKIPCKASGYTFTDYNMDWVKQSHGKSLEWIGDINPNNADTIYNQKFKGKATLTVDKSSSTAYMELRSLTSEDTAVYYCARGDYDGYYPVYYAMDYWGQGTSVTVSS
VL: ENVLTQSPAIMSASPGEKVTMTCRASSSVSSSYLHWYQQKSGASPKLWIFSTSNLAAGVPARFSGSGSGTSYSLTVSSVEAEDAATYYCQQYSGYPLTFGAGTKLELK
notes: Chimeric 75G7C6 with NG of heavy chain CDR2 mutated to NA; also called c754G7C6-1; mutant chimeric antibody NG/NA
EC50 [9]: 11.3 nM
Maximum mean fluorescence intensity [9]: 134000 MFI
EC50 [10]: 0.02 nM
Maximum OD450 value [10]: 3.44 OD450
EC50 [11]: 7.45 nM
Maximum mean fluorescence intensity [11]: 110000 MFI

B4: c75G7C6-2 (antibody, human IgG1, V domains shown)
VH: B3 VH with N55Q, A56G
VL: B3 VL
notes: Chimeric 75G7C6 with NG of heavy chain CDR2 mutated to QG; also called c754G7C6-2; mutant chimeric antibody NG/QG
EC50 [9]: 16.9 nM
Maximum mean fluorescence intensity [9]: 130000 MFI
EC50 [10]: 0.03 nM
Maximum OD450 value [10]: 3.23 OD450
EC50 [11]: 11.6 nM
Maximum mean fluorescence intensity [11]: 111000 MFI

B5: c75G7C6-3 (antibody, human IgG1, V domains shown)
VH: B3 VH with A56G, D102E
VL: B3 VL
notes: Chimeric 75G7C6 with DG of heavy chain CDR3 mutated to EG; Human IgG1/kappa; also called mutant chimeric antibody DG/EG
EC50 [9]: 44.8 nM
Maximum mean fluorescence intensity [9]: 84700 MFI
EC50 [10]: 0.54 nM
Maximum OD450 value [10]: 1.86 OD450
EC50 [11]: 24.8 nM
Maximum mean fluorescence intensity [11]: 94100 MFI

Results, then the binder that gave them:

binding result [1]: no binding
OD450 nm [2]: 0.98
OD450 nm [3]: 3.53
OD450 nm [4]: 0.18
OD450 nm [5]: 3.61
OD450 nm [6]: 0.11
OD450 nm [7]: 0.1
OD450 nm [8]: 0.09
B1: Murine anti-56F10 (antibody, V domains shown)
VH: EVQLQQSGAELVKPGASVKLSCTASGFNIKDFYMHWVKQRTEQGLEWIGRIDPEDGETKYAPKFQGKATITADTSSNTAYLQLSSLTSEDTAVYYCGCRTGGFAYWGQGTLVTVSA
VL: QIVLTQSPAIMSASPGEKVTMTCSASSSVSYLYWYQQKPGSSPSLLIYDTSNLASGVPVRFSGSGSGTSYSLTISRMEAEDAATYYCQQWSRNPWTFGGGTKLEIK
notes: murine hybridoma antibody; also called 56F10G2

binding result [1]: no binding
OD450 nm [2]: 2.68
OD450 nm [3]: 3.67
OD450 nm [4]: 0.49
OD450 nm [5]: 3.71
OD450 nm [6]: 0.13
OD450 nm [7]: 0.08
OD450 nm [8]: 0.08
B2: Murine anti-59G3 (antibody, V domains shown)
VH: DVQLQESGPGLVKPSQSLSLTCSVTGYSITSGYYWHWIRQFPENKLEWMGYISYDGSNIYNPSLKNRISITRDTSKNQFFLKLNSVTTEDTATYYCAINSDYALDYWGQGTSVTVSS
VL: B1 VL with L32M, S44R, R92S, N93Y, P94S, W95L, G99A, I105L
notes: murine hybridoma antibody; also called 59G3F12

binding result [1]: no binding
OD450 nm [2]: 3.2
OD450 nm [3]: 3.69
OD450 nm [4]: 0.64
OD450 nm [5]: 3.72
OD450 nm [6]: 0.16
OD450 nm [7]: 0.1
OD450 nm [8]: 0.09
B6: Murine anti-53D8 (antibody, V domains shown)
VH: QVQLQQSGAELARPGASVKMSCKASGYTFTSYTMHWVKQRPGQGLEWIGYINPSSGYTKYNQIFKDKATLTADKSSSTAYMQLSSLTSEDSAVYYCTRGGGRGFAYWGQGTLVTVSA
VL: DILMTQSPSSMSVSLGDTVSITCHASQDINSNIGWLQQKPGKSFKGLIYHGTNLEDGVPSRFSGSGSGADYSLTISSLESEDFADYYCVQYAQFPFTFGSGTKLEIK
notes: murine hybridoma antibody; also called 53D8H4
